Measured values taken from article PMC3698643 (Cell Research, 2013).

B2: PR70 (108-575), wild type (domain or fragment)
chain: VVQTRKEEPLPPATSQSIPTFYFPRGRPQDSVNVDAVISKIESTFARFPHERATMDDMGLVAKACGCPLYWKGPLFYGAGGERTGSVSVHKFVAMWRKILQNCHDDAAKFVHLLMSPGCNYLVQEDFVPFLQDVVNTHPGLSFLKEASEFHSRYITTVIQRIFYAVNRSWSGRITCAELRRSSFLQNVALLEEEADINQLTEFFSYEHFYVIYCKFWELDTDHDLLIDADDLARHNDHALSTKMIDRIFSGAVTRGRKVQKEGKISYADFVWFLISEEDKKTPTSIEYWFRCMDLDGDGALSMFELEYFYEEQCRRLDSMAIEALPFQDCLCQMLDLVKPRTEGKITLQDLKRCKLANVFFDTFFNIEKYLDHEQKEQISLLRDGDSGGPELSDWEKYAAEEYDILVAEETAGEPWEDGFEAELSPVEQKLSALRSPLAQRPFFEAPSPLGAVDLYEYACGDEDLEPL
B3: PR70 (108-575) F128A (domain or fragment)
chain: VVQTRKEEPLPPATSQSIPTAYFPRGRPQDSVNVDAVISKIESTFARFPHERATMDDMGLVAKACGCPLYWKGPLFYGAGGERTGSVSVHKFVAMWRKILQNCHDDAAKFVHLLMSPGCNYLVQEDFVPFLQDVVNTHPGLSFLKEASEFHSRYITTVIQRIFYAVNRSWSGRITCAELRRSSFLQNVALLEEEADINQLTEFFSYEHFYVIYCKFWELDTDHDLLIDADDLARHNDHALSTKMIDRIFSGAVTRGRKVQKEGKISYADFVWFLISEEDKKTPTSIEYWFRCMDLDGDGALSMFELEYFYEEQCRRLDSMAIEALPFQDCLCQMLDLVKPRTEGKITLQDLKRCKLANVFFDTFFNIEKYLDHEQKEQISLLRDGDSGGPELSDWEKYAAEEYDILVAEETAGEPWEDGFEAELSPVEQKLSALRSPLAQRPFFEAPSPLGAVDLYEYACGDEDLEPL
B5: PR70 (108-575) D443K (domain or fragment)
chain: VVQTRKEEPLPPATSQSIPTFYFPRGRPQDSVNVDAVISKIESTFARFPHERATMDDMGLVAKACGCPLYWKGPLFYGAGGERTGSVSVHKFVAMWRKILQNCHDDAAKFVHLLMSPGCNYLVQEDFVPFLQDVVNTHPGLSFLKEASEFHSRYITTVIQRIFYAVNRSWSGRITCAELRRSSFLQNVALLEEEADINQLTEFFSYEHFYVIYCKFWELDTDHDLLIDADDLARHNDHALSTKMIDRIFSGAVTRGRKVQKEGKISYADFVWFLISEEDKKTPTSIEYWFRCMDLDGDGALSMFELEYFYEEQCRRLDSMAIEALPFQDCLCQMLKLVKPRTEGKITLQDLKRCKLANVFFDTFFNIEKYLDHEQKEQISLLRDGDSGGPELSDWEKYAAEEYDILVAEETAGEPWEDGFEAELSPVEQKLSALRSPLAQRPFFEAPSPLGAVDLYEYACGDEDLEPL

Experiments:
[1] = target: PP2A core enzyme (Aα-Cα heterodimer) (UniProt P30153 9-589; P67775 1-309); assay: SEC
[2] = target: GST-tagged PP2A core enzyme (GST-A bound to PP2Ac) (UniProt P30153 9-589; P67775 1-309); assay: pull-down
[3] = target: B2; assay: pull-down
PR70 (108-575) F128A = target: B3; assay: pull-down
PR70 (108-575) R398D = target: T1, PR70 (108-575) R398D (UniProt Q9Y5P8 108-575, R398D); assay: pull-down
T1 sequence: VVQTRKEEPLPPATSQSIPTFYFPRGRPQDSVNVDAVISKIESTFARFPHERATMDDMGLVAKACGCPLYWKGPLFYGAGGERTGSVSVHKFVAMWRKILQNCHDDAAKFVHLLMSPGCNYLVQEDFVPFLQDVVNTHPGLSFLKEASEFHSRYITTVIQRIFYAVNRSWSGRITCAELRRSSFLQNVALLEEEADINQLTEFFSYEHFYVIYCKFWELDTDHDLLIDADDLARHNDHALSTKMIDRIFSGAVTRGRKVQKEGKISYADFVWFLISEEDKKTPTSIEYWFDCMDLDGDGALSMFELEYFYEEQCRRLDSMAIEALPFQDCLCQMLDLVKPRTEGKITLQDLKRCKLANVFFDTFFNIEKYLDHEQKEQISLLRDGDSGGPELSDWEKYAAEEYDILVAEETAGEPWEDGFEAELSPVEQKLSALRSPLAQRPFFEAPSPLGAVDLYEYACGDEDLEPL

PR70 (108-575) D443K = target: B5; assay: pull-down
[4] = target: PP2A scaffold subunit Aα (9-589) (UniProt P30153 9-589); assay: crystal structure
[5] = target: PP2A catalytic subunit Cα (1-309), methylated (UniProt P67775 1-309, fully methylated by LCMT-1 (residue not stated)); assay: crystal structure
[6] = target: PP2A holoenzyme containing PR70 (108-519) (UniProt P30153 9-589; P67775 1-309; Q9Y5P8 108-519); assay: SEC
Chain of PP2A holoenzyme containing PR70 (108-519) (P30153 9-589, chain 1 of 2): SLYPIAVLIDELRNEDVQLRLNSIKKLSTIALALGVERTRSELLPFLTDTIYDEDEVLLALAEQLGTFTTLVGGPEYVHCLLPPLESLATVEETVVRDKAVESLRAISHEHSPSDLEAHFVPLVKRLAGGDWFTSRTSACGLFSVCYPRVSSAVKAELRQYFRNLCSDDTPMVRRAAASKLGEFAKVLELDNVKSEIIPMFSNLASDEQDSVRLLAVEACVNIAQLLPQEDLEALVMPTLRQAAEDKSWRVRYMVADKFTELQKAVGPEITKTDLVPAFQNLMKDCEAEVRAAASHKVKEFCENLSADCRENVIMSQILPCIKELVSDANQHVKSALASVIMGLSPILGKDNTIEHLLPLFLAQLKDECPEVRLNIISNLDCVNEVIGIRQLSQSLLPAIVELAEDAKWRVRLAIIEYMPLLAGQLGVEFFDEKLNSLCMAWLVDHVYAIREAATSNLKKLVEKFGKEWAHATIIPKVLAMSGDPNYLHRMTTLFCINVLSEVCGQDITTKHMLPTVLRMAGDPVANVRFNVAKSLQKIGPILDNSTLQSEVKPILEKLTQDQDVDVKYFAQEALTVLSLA
Chain of PP2A holoenzyme containing PR70 (108-519) (P67775 whole entry, chain 2 of 2): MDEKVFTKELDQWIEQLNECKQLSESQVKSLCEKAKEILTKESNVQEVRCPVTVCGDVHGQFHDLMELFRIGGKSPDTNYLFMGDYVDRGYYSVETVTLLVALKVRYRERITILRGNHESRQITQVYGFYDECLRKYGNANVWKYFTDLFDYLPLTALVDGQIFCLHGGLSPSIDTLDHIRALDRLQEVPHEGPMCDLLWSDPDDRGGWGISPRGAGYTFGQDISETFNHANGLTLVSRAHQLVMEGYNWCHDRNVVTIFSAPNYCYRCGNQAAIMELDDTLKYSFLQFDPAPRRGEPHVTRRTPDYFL

Chain of GST-tagged PP2A core enzyme (GST-A bound to PP2Ac) (P30153 9-589, chain 1 of 2): as the sequence (P30153 9-589, chain 1 of 2) above
Chain of GST-tagged PP2A core enzyme (GST-A bound to PP2Ac) (P67775 whole entry, chain 2 of 2): as the sequence (P67775 whole entry, chain 2 of 2) above
Chain of PP2A catalytic subunit Cα (1-309), methylated (P67775 whole entry): as the sequence (P67775 whole entry, chain 2 of 2) above
Chain of PP2A scaffold subunit Aα (9-589) (P30153 9-589): as the sequence (P30153 9-589, chain 1 of 2) above
Chain of PP2A core enzyme (Aα-Cα heterodimer) (P30153 9-589, chain 1 of 2): as above
Chain of PP2A core enzyme (Aα-Cα heterodimer) (P67775 whole entry, chain 2 of 2): as the sequence (P67775 whole entry, chain 2 of 2) above

B1: PR70 (108-519) (domain or fragment)
chain: VVQTRKEEPLPPATSQSIPTFYFPRGRPQDSVNVDAVISKIESTFARFPHERATMDDMGLVAKACGCPLYWKGPLFYGAGGERTGSVSVHKFVAMWRKILQNCHDDAAKFVHLLMSPGCNYLVQEDFVPFLQDVVNTHPGLSFLKEASEFHSRYITTVIQRIFYAVNRSWSGRITCAELRRSSFLQNVALLEEEADINQLTEFFSYEHFYVIYCKFWELDTDHDLLIDADDLARHNDHALSTKMIDRIFSGAVTRGRKVQKEGKISYADFVWFLISEEDKKTPTSIEYWFRCMDLDGDGALSMFELEYFYEEQCRRLDSMAIEALPFQDCLCQMLDLVKPRTEGKITLQDLKRCKLANVFFDTFFNIEKYLDHEQKEQISLLRDGDSGGPELSDWEKYAAEEYDILVAEETA
binding result [1]: binds

B2
binding result [2]: binds

B3
fold reduction of binding affinity against wild-type PR70 (108-575) [2]: ~4 fold

B4: GST-Cdc6 (18-90) (domain or fragment)
chain: KLSRALNKAKNSSDAKLEPTNVQTVTCSPRVKALPLSPRKRLGDDNLCNTPHLPPCSPPKQGKKENGPPHSHT
binding result [3]: binds | binding result (PR70 (108-575) F128A): binds | binding result (PR70 (108-575) R398D): binds | binding result (PR70 (108-575) D443K): binds

B5
fold reduction of binding affinity against wild-type PR70 (108-575) [2]: ~2 fold

B6: PR70 (122-490) fused to Cdc6 (70-90) via a flexible linker (other)
chain: SQSIPTFYFPRGRPQDSVNVDAVISKIESTFARFPHERATMDDMGLVAKACGCPLYWKGPLFYGAGGERTGSVSVHKFVAMWRKILQNCHDDAAKFVHLLMSPGCNYLVQEDFVPFLQDVVNTHPGLSFLKEASEFHSRYITTVIQRIFYAVNRSWSGRITCAELRRSSFLQNVALLEEEADINQLTEFFSYEHFYVIYCKFWELDTDHDLLIDADDLARHNDHALSTKMIDRIFSGAVTRGRKVQKEGKISYADFVWFLISEEDKKTPTSIEYWFRCMDLDGDGALSMFELEYFYEEQCRRLDSMAIEALPFQDCLCQMLDLVKPRTEGKITLQDLKRCKLANVFFDTFFNIEKYLDHEQKEQISLLRSTGNASDSSSDSSSSEGDGTVLPPCSPPKQGKKENGPPHSHT
binding result [4]: binds | binding result [5]: binds

B7: GST-Cdc6 (49-90) (domain or fragment)
chain: KALPLSPRKRLGDDNLCNTPHLPPCSPPKQGKKENGPPHSHT
binding result [6]: binds
